Data from patent US20200317768A1 (published 2020).
Changes are numbered by the printed parent chain.

Columns and labels:
[1] = target: T1, human FcγRIIIaV extracellular domain, C-terminal His-tag (human, UniProt P08637 17-208); test: SPR (Biacore), antibody captured, FcgR analyte, 25 C
T1 construct: also called FcgRIIIaV; not shown: His-tag added to C-terminus
Procedure: (§1) The kinetic analysis of interactions between these antibodies and FcγR was carried out using BIACORE® T200 or BIACORE® 4000 (GE Healthcare). HBS-EP+ (GE Healthcare) was used as the running buffer, and the measurement temperature was set to 25° C. A chip produced by immobilizing Protein A. Protein A/G or mouse anti-human IgG kappa light chain (BD Biosciences) onto a Series S Sensor Chip CM4 or CM5 (GE Healthcare) by the amine-coupling method was used. […] After the measurement, the antibody captured on the chip was washed off by allowing reaction with 10 mM glycine-HCl, pH1.5 and 25 mM NaOH so that the chip was regenerated and used repeatedly. The sensorgrams obtained as measurement results were analyzed by the 1:1 Langmuir binding model using the BIACORE® Evaluation Software to calculate the binding rate constant ka (L/mol/s) and dissociation rate constant kd (l/s), and the dissociation constant KD (mol/L) was calculated from these values. […] Regarding such interactions, KD values were calculated using the following 1:1 binding model described in BIACORE® T100 Software Handbook BR1006-48 Edition AE.
(§2) The behavior of interacting molecules according to the 1:1 binding model on BIACORE® can be described by Equation 1: Req=C·R max/(KD+C)+RI, wherein, Req is a plot of steady-state binding levels to analyte concentration. C is concentration, RI is bulk refractive index contribution in the sample, and Rmax is analyte binding capacity of the surface. When this equation is rearranged, KD can be expressed as Equation 2: KD=C·Rmax/(Req−RI)−C. KD can be calculated by substituting the values of Rmax, RI, and C into Equation 1 or Equation 2. From the current measurement conditions, RI=0, C=2 μmol/L can be used.

[2] = target: T2, human FcγRIIaR extracellular domain, C-terminal His-tag (human, UniProt P12318 34-217); test: as above
T2 construct: also called human FcγRIIa (type R); FcgRIIaR; not shown: His-tag added to C-terminus
T2 chain: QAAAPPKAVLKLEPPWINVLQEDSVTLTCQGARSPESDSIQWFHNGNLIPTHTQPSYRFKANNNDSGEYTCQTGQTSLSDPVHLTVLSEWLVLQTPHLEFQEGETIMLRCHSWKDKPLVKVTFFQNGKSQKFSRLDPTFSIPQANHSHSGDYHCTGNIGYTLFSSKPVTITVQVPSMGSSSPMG
Procedure: as §1, §2

[3] = target: T3, cynomolgus monkey FcγRIIa1 extracellular domain, C-terminal His-tag (cynomolgus monkey); test: as above
T3 construct: also called cyno FcγRIIa1; cynoFcgRIIa1; not shown: His-tag added to C-terminus
T3 chain: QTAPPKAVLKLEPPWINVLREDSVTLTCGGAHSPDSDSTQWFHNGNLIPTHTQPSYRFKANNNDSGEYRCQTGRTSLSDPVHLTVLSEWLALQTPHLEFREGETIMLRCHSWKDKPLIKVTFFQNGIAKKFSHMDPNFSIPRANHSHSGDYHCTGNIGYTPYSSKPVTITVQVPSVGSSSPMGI
Procedure: as §1, §2

[4] = target: T4, human FcγRIIb extracellular domain, C-terminal His-tag (human, UniProt P31994 43-217); test: as above
T4 construct: also called FcgRIIb (human); not shown: His-tag added to C-terminus
T4 sequence: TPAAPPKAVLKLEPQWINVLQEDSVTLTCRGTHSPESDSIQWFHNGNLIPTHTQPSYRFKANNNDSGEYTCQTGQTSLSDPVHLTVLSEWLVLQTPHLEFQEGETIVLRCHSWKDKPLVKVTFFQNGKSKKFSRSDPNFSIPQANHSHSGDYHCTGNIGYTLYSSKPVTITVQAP
Procedure: as §1, §2

[5] = target: T5, human FcγRIIaH extracellular domain, C-terminal His-tag (human, UniProt P12318 34-217); test: as above
T5 construct: also called human FcγRIIa (type H); FcgRIIaH; not shown: His-tag added to C-terminus
T5 sequence: T2 chain with R134H
Procedure: as §1, §2

[6] = target: T6, cynomolgus monkey FcγRIIIaS extracellular domain, C-terminal His-tag (cynomolgus monkey, UniProt A3RFZ7 21-206 (rhesus entry)); test: as above
T6 construct: also called cyno FcγRIIIaS; cynoFcγRIIIaS; not shown: His-tag added to C-terminus
Procedure: as §1, §2

[7] = target: T7, cynomolgus monkey FcγRIIa3 extracellular domain, C-terminal His-tag (cynomolgus monkey); test: as above
T7 construct: also called cyno FcγRIIa3; cynoFcgRIIa3; not shown: His-tag added to C-terminus
T7 chain: T3 chain with P95T, T121A, A128S, H133P, D135N
Procedure: as §1, §2

[8] = target: T8, cynomolgus monkey FcγRIIa2 extracellular domain, C-terminal His-tag (cynomolgus monkey); test: SPR (Biacore), KD of SG1 / KD of variant;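 also: relative to parent M103205H795-SG1 carrying the SG1 human heavy chain constant region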
T8 construct: also called cyno FcγRIIa2; cynoFcgRIIa2; not shown: His-tag added to C-terminus
T8 chain: T3 chain with P95T, T121A, I127K, A128S, K130N, D135N, R142Q
Procedure: as §1, §2

[9] = target: T1, human FcγRIIIaV extracellular domain, …; test: SPR (Biacore), KD of SG1 / KD of variant;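 also: relative to parent M103205H795-SG1 carrying the SG1 human heavy chain constant region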
Procedure: as §1, §2

[10] = target: T2, human FcγRIIaR extracellular domain, …; test: SPR (Biacore), KD of SG1 / KD of variant;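 also: relative to parent M103205H795-SG1 carrying the SG1 human heavy chain constant region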
Procedure: as §1, §2

[11] = target: T3, cynomolgus monkey FcγRIIa1 …; test: SPR (Biacore), KD of SG1 / KD of variant;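 also: relative to parent M103205H795-SG1 carrying the SG1 human heavy chain constant region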
Procedure: as §1, §2

[12] = target: T4, human FcγRIIb extracellular domain, …; test: SPR (Biacore), KD of SG1 / KD of variant
Procedure: as §1, §2

[13] = target: T5, human FcγRIIaH extracellular domain, …; test: SPR (Biacore), KD of SG1 / KD of variant
Procedure: as §1, §2

[14] = target: T6, cynomolgus monkey FcγRIIIaS …; test: SPR (Biacore), KD of SG1 / KD of variant
Procedure: as §1, §2

[15] = target: T7, cynomolgus monkey FcγRIIa3 …; test: SPR (Biacore), KD of SG1 / KD of variant
Procedure: as §1, §2

T1 sequence (P08637 17-208 F176V): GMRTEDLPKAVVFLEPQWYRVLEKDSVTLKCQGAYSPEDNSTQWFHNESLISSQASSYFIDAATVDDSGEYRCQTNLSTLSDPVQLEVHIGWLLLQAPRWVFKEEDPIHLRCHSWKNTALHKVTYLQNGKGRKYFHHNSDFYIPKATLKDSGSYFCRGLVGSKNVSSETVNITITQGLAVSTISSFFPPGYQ
T6 sequence (A3RFZ7 21-206): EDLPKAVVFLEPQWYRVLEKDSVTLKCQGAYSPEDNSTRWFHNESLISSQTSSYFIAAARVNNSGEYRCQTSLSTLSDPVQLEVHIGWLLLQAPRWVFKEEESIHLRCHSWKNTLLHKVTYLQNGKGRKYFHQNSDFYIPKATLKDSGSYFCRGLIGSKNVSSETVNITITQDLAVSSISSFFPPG

B1: M103205H795-MY316/M103202L889-SK1 (antibody, human IgG1, kappa)
heavy: QVTLKESGPVLVKPTETLTLTCTVSGIDLSHDDISWVRQAPGKGLEWVGIISYAGSTYYASWAKGRLTISKDTSKNQVVLTMTNMDPVDTATYYCARGVPAYSHGGDLWGQGTLVTVSSASTKGPSVFPLAPSSKSTSGGTAALGCLVKDYFPEPVTVSWNSGALTSGVHTFPAVLQSSGLYSLSSVVTVPSSSLGTQTYICNVNHKPSNTKVDKKVEPKSCDKTHTCPPCPAPELLLGPSVFLFPPKPKDTLMISRTPEVTCVVVDVSEEDPEVKFNWYVDGVEVHNAKTKPREELYNSTYRVVSVLTVLHQDWLNGKEYKCKVSNKALPKPIEKTISKAKGQPREPQVYTLPPSREEMTKNQVSLTCLVKGFYPSDIAVEWESNGQPENNYKTTPKVLDSDGSFFLYSKLTVDKSRWQQGNVFSCSVMHEALHNHYTQKSLSLSP
light: DIVMTQSPATLSLSPGERATLSCTSSQSVYHANWLSWFQQKPGQPPKLLIYWASTLAYGVPSRFSGSGSGTDFTLTISSLQPEDAATYYCAGGYGGGRYAFGQGTKVEIKRTVAAPSVFIFPPSDEQLKSGTASVVCLLNNFYPREAKVQWKVDNALQSGNSQESVTEQDSKDSTYSLSSTLTLSKADYEKHKVYACEVTHQGLSSPVTKSFNRGEC
- Kd [1]: 17 µM
- Kd [2]: 1100 nM
- Kd [3]: 5.1 µM
- Kd [4]: 4 µM
- Kd [5]: 440 nM
- Kd [6]: 2400 nM
- Kd [7]: 22 µM
- KD fold (SG1 = 1) [8]: 0.6 fold
- KD fold (SG1 = 1) [9]: 0.05 fold
- KD fold (SG1 = 1) [10]: 1.1 fold
- KD fold (SG1 = 1) [11]: 0.6 fold
- KD fold (SG1 = 1) [12]: 1.2 fold
- KD fold (SG1 = 1) [13]: 1.6 fold
- KD fold (SG1 = 1) [14]: 0.15 fold
- KD fold (SG1 = 1) [15]: 0.6 fold
